Results published in PMC10425845 (The EMBO Journal, 2023).
Where two headings read alike, the source gives them in different places. Values belong to the molecule of their own block, whether it stands above or below them.

B4: Strep-REC114 (full-length mouse REC114 with a single N-terminal Strep-tag) (natural protein, UniProt Q9CWH4 1-259, looked up)
chain: MSEAGNVASGLGLPGEVSQWSLKRYGRFMLLDNVGSPGPSSEAAAAGSPTWKVFESSEESGSLVLTIVVSGHFFISQGQTLLEGFSLIGSKNWLKIVRRMDCLLFGTTIKNKSRMFRVQFSGESKEEALERCCGCVQTLAQYVTVQEPDSTTQELQQSQGPREAGESQGKDPLQQGPSLTLEQHVCMAAGAGVLQERTSVTHRAQSILAPEKLTLAYEGSSWGTEELGPFLRLCLMDQNFPAFVEEVEKELKKITGLRN

Assays:
[1] = target: REC114 226-254-MEI4 1-43 minimal complex (mouse) (UniProt Q9CWH4); assay: AUC
[2] = target: REC114 226-254-MEI4 1-43 minimal complex (mouse) (UniProt Q9CWH4); assay: AUC; remark: listed apart in the source
[3] = target: Strep-REC114-His-MEI4 1-127 complex (mouse) (UniProt Q9CWH4); assay: SEC-MALS
[4] = target: Strep-REC114-His-MEI4 1-127 complex (mouse) (UniProt Q9CWH4); assay: native MS
[5] = target: B4; assay: pull-down
[6] = target: T1, Strep-REC114 1-159 (PH domain) (mouse, UniProt Q9CWH4 1-159); assay: ITC
T1 sequence (looked up): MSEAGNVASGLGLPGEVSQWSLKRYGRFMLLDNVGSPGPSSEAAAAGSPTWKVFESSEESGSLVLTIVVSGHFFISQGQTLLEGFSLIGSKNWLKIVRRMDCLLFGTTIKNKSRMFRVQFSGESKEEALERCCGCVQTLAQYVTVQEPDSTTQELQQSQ

[7] = target: Strep-REC114-His-MEI4 1-127 complex (mouse) (UniProt Q9CWH4); assay: ITC
[8] = target: the molecule itself; assay: SEC-MALS
[9] = target: the molecule itself; assay: SEC-MALS; remark: listed apart in the source
[10] = target: T2, MEI4 1-43 (untagged) (mouse, UniProt Q8BRM6 1-43); assay: AUC
T2 chain (looked up): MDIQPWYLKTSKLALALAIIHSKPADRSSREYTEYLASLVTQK

[11] = target: T3, His-MEI4 1-127 (mouse, UniProt Q8BRM6 1-127); assay: native MS
T3 sequence (looked up): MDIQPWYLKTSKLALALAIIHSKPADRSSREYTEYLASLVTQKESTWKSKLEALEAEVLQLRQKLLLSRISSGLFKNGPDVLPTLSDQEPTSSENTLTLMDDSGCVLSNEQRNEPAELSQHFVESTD

[12] = target: T4, His-Sumo-IHO1 1-281 (mouse, UniProt Q6PDM4 1-281); assay: SEC
T4 sequence (looked up): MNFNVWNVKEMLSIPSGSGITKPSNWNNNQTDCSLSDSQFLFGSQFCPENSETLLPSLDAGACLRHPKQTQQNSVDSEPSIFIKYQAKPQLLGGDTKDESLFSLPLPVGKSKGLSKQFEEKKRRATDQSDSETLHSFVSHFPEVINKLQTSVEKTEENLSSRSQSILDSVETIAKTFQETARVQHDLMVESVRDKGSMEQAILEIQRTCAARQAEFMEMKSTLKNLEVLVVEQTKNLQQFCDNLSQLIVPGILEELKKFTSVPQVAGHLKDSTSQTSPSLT

[13] = target: T5, His-MBP-IHO1 1-281 (mouse, UniProt Q6PDM4 1-281); assay: SEC
T5 sequence (looked up): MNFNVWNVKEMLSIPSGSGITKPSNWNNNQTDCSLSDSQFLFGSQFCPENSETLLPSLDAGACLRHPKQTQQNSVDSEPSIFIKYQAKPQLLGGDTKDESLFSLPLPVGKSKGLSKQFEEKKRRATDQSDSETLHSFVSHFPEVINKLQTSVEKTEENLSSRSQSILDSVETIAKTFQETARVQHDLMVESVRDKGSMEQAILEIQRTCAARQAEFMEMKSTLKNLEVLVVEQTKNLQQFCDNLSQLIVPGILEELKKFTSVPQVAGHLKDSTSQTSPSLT

[14] = target: the molecule itself; assay: SEC-MALS; remark: listed apart in the source
[15] = target: T3, His-MEI4 1-127; assay: SEC-MALS
[16] = target: B4; assay: SEC

stoichiometry N [1]: 2
stoichiometry N [2]: 2
Molecule: REC114 226-254-MEI4 1-43 minimal complex (from UniProt Q9CWH4 226-254; Q8BRM6 1-43)

stoichiometry N [3]: 2
stoichiometry N [4]: 2
Molecule: Strep-REC114-His-MEI4 1-127 complex (from UniProt Q9CWH4 1-259; Q8BRM6 1-127)

binding result [5]: binds
Molecule: MDIQPWYLKTSKLALALAIIHSKPADRSSREYTEYLASLVTQK (domain or fragment, mouse, UniProt Q8BRM6 1-43, looked up) [His-MBP-MEI4 1-43]

Kd [6]: 30.4 µM
Kd [7]: 31.9 µM
Molecule: MNFNVWNVKEMLSIPSGSGITKP (domain or fragment, mouse, UniProt Q6PDM4 1-23, looked up) [His-MBP-IHO1 1-23]

B1: IHO1 125-281 (domain or fragment, mouse, UniProt Q6PDM4 125-281, looked up)
chain: ATDQSDSETLHSFVSHFPEVINKLQTSVEKTEENLSSRSQSILDSVETIAKTFQETARVQHDLMVESVRDKGSMEQAILEIQRTCAARQAEFMEMKSTLKNLEVLVVEQTKNLQQFCDNLSQLIVPGILEELKKFTSVPQVAGHLKDSTSQTSPSLT
stoichiometry N [8]: 4

Molecule: ELGPFLRLCLMDQNFPAFVEEVEKELKKI (domain or fragment, mouse, UniProt Q9CWH4 226-254, looked up) [His-MBP-REC114 226-254]
stoichiometry N [9]: 2

stoichiometry N [10]: 2
Molecule: ELGPFLRLCLMDQNFPAFVEEVEKELKKI (domain or fragment, mouse, UniProt Q9CWH4 226-254, looked up) [REC114 226-254 (untagged)]

B2: IHO1 125-261 (domain or fragment, mouse, UniProt Q6PDM4 125-261, looked up)
chain: ATDQSDSETLHSFVSHFPEVINKLQTSVEKTEENLSSRSQSILDSVETIAKTFQETARVQHDLMVESVRDKGSMEQAILEIQRTCAARQAEFMEMKSTLKNLEVLVVEQTKNLQQFCDNLSQLIVPGILEELKKFTS
stoichiometry N [8]: 4

B3: MBP-IHO1 125-261 (MBP joined by a five-residue linker) (domain or fragment, mouse, UniProt Q6PDM4 125-261, looked up)
chain: ATDQSDSETLHSFVSHFPEVINKLQTSVEKTEENLSSRSQSILDSVETIAKTFQETARVQHDLMVESVRDKGSMEQAILEIQRTCAARQAEFMEMKSTLKNLEVLVVEQTKNLQQFCDNLSQLIVPGILEELKKFTS
stoichiometry N [8]: 4

Molecule: B4
stoichiometry N [11]: 1
binding result [12]: binds
binding result [13]: binds
binding result [14]: binds
stoichiometry N [15]: 2

Kd [7]: 26.9 µM
B5: IHO1 1-281 (domain or fragment, mouse, UniProt Q6PDM4 1-281, looked up)
chain: MNFNVWNVKEMLSIPSGSGITKPSNWNNNQTDCSLSDSQFLFGSQFCPENSETLLPSLDAGACLRHPKQTQQNSVDSEPSIFIKYQAKPQLLGGDTKDESLFSLPLPVGKSKGLSKQFEEKKRRATDQSDSETLHSFVSHFPEVINKLQTSVEKTEENLSSRSQSILDSVETIAKTFQETARVQHDLMVESVRDKGSMEQAILEIQRTCAARQAEFMEMKSTLKNLEVLVVEQTKNLQQFCDNLSQLIVPGILEELKKFTSVPQVAGHLKDSTSQTSPSLT
stoichiometry N [8]: 4

Molecule: WGTEEDGPFLRLCLMDQNFPAFVEEVEKELKKITG (domain or fragment, mouse, UniProt Q9CWH4 222-256, looked up) [His-MBP-REC114 222-256 L227D]
binding result [9]: binds

binding result [16]: binds
B6: TOPOVIBL 452-579 (domain or fragment, mouse, UniProt J3QMY9 452-579, looked up)
chain: SCDTEQHLTPEKNISAQNTKDQHKNIAQEFPEESIGQAENKRPKRGSPNHGREESRVLGSARDRSPPKSATRDRELTEVSLTARGSQTQAAHGRAQAAEAASPAGGLEDLWLQEVSNLSEWLNPGHRS

Molecule: GSMEQAILEIQRTCAARQAEFMEMKSTLKNLEVLVVEQTKNLQQFCDNLS (domain or fragment, mouse, UniProt Q6PDM4 196-245, looked up) [IHO1 196-245]
stoichiometry N [8]: 4
